We go through 41 sequences from the nanobody polyreactivity screen of Harvey et al. (2022).

This data set is described as follows: yeast display, Sf9 membrane polyspecificity reagent, FACS + sequencing; frameworks hold sequencing errors. In a few lines:
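Sorting gates, low and high (top ~1%), were placed on anti-HA fluorescence to track expression and on streptavidin fluorescence to track reagent binding. A clone's polyreactivity label is taken from the gate it came out of. The reagent was 10% biotinylated, detergent-solubilized Sf9 membrane, applied for 1 hour at 4 °C to galactose-induced yeast display cells.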
Turning to “QVQLVESGGGLVQAGGSLRLSCAASGSTFLYNAMRWYRQAPGKEREFVAAISGSGGTTYYADSVKGRFTISRDNAKNTFYLQMNSLKPEDTAVYYCAVSQSWYWYYASDYWGQGTQVTVSS”, the “polyreactivity (PSR sort gate)” value was “low polyreactivity”.

Turning to “QVQLVESGGGLVQAGGSLRLSCAASGLIFFQNAMGWYRQAPGKERELVAAITWSGGRTYYADSVKGRFTISRDNAKNTVYLQMKSLKPEDTEVYYCAADYDYPDYYAPSWPGYNYWGQGTQVTVSS”, the “polyreactivity (PSR sort gate)” value was “low polyreactivity”.

Regarding “QFHLVESGGGLVQAGGSLRLSCAAYGIIFYSYTMGWYRQAPGKERELVAAISRSGGSTYYADSVKGRFTISRDNAKNTVYLQMNSLKPEDTAVYYCAQVGNTAGYDYWGQGSQVTVSS”, the “polyreactivity (PSR sort gate)” value was “high polyreactivity”.

Turning to “QVQLVESGGGLVQAGGSLRLSCAASGSTFRRYAMGWYRQAPGKERELVAAISSSGDSTYYADSVKGRFTISRDNAKNTVYLQMNSLKPEDTAVYYCATRLRQVYRSQSSGYDYWGQGTQVTVSS”, the “polyreactivity (PSR sort gate)” value is given as “low polyreactivity”.

“QVQLVESGGGLVQAGGSLRLSCAASGNTFGRYAMGGYRQAPGKERELVAAISWSGGSTYSADSVKGRFTISRDNAKNSLYLQMNSLKPEDTAVYYCAANSWRGFEYWGQGTQVTVSS”: the “polyreactivity (PSR sort gate)” value is on record as “high polyreactivity”.

As to “QVQLVESGGGLVQAGGSRRLSCAASGSIFATYAIGWYRQAPGKERELVAAISWSGGRTYYADSVKGRFTISRDNAKNTVYLEMNSLKPEDTAVYYCNAVTLLGTRGYGYWGQGTQVTVSS”, the “polyreactivity (PSR sort gate)” value was “high polyreactivity”.

In the case of “QVQIVESGGGLFQAGGSLRLICAASGRIFGNYSMGSSRQEPGKEREFVAAIDWSGGTTYYADSVKGPFTISRDNAKNTVYLQMNSLKPEDTEVYYCAAKYVYSVGNYRYDYWGQGTEVTVSS”, the “polyreactivity (PSR sort gate)” value was “low polyreactivity”.

Take “QVQLVESGGGLVQAGGSLRLSCAASGRIFPKNTMGWYRQAPGKERELVAAINWNGGRTYYADSVKGRFTISRDNAKNTVYLQMNSLKPEDTAVYYCAKDGYWDFDYWGQGTQVTVSS”: the “polyreactivity (PSR sort gate)” value is “low polyreactivity”.

For the sequence “QVQLVESGGGLVQAGGSLRLSRAASGITFGFNAMGWYRQAPGKERELVAAITWSVGRTYYADSVKGRFTISRDNAKNTVYLQMNSLKPEDTAVYYCAKVFEAGDDYFAYDYWGQGTQVTVSS”, the “polyreactivity (PSR sort gate)” value was “low polyreactivity”.

With “QVQLVESGGRLVQAGGSLRLSCAASGRIFGYYAMGRYRQAPGKERQLVAAITSGGSTYYADSVKGRFTISRDNATNTVYLQMHSLKPEDTADYYCNARYWGRTKVYYWGQGTQVTVSS”, the “polyreactivity (PSR sort gate)” value was “high polyreactivity”.

Regarding “QVQLVESGGGLVQAGGSLRLSCAASGSTFDGYAMGWYRQAPGKERELVAAISSSGTSTYYADSVKGRFTISRDNAKNTVYLQMNSLKPEDTAVYYCAGKGATQSWAGDYWGQGTQVTVSS”, the “polyreactivity (PSR sort gate)” value is recorded as “low polyreactivity”.

Regarding “QVQLVESGGGLVQAGGSLRLSCAASGSTFGTYAMGWYRQAPGKERELVAAITRSGGSTYYADSVKGRFTISRDNAKNTVYLQKNSLKPEDTAVYYCAKYVFSYPQSYAYYYWGHGTQVTVSS”, the “polyreactivity (PSR sort gate)” value is listed as “high polyreactivity”.

Regarding “QVQLVESGGGLVQAGGSLRLSCAASGITFGDNAMGWYRQAPGKERELVAAITLSDVDTYADSVKGRFTISRDNAKNTVYLQMNSLKPEDTAVYYCAADYYAHQDYRFDYWGQGTQVTVSS”, the “polyreactivity (PSR sort gate)” value is reported as “low polyreactivity”.

As for “QVQLVESAGGLVQAGGSLRLSCAASRSIYGYYAMGWYRQEPGKERELVAAIRRSGGSTYYADSVKGRFTISRDNAKNTVYLHMNSLKPEDTAVYYCAARVSPYRGFYYWGLGTQVTVSS”, the “polyreactivity (PSR sort gate)” value is “high polyreactivity”.

Regarding “QVQLVESGGGLVQAGGSLRLSCAASGRIFIIYAMGWYRQAPGKEREFVAAITSSGGSTYYADSVKGRFTISRDNAKNTVYLQMYSLKPEDTAVYYCNKVTRYYREYHRDSQYGYWGQGTQVTVSS”, the “polyreactivity (PSR sort gate)” value was “high polyreactivity”.

On to “QVQLVESGGGLVQAGGSLRLSCAASGSTFRPYAKGWYRQAPGKERELVAAISNGGNTNYADSVKGRFSISRDNAKNTVYLQMNSLIPEDTAFYYCAKTFRGQPYLRYRYYYWGQGTQVTVSS”, for which the “polyreactivity (PSR sort gate)” value is “high polyreactivity”.

As for “QVQLVESGGGLVQAGGSLRLSCAASGFTFSNYAMGWYRQAPGKERELVAAISWSGGSTYYADSVKGRFTISRDNAKNTVYLQMNSLKPEDTAVYYCNVLARPPYYKTRVNSPRSDYWGQGTQVTVSS”, the “polyreactivity (PSR sort gate)” value was “high polyreactivity”.

As for “QVQLVESGGGLVQAGGSLRLSCAASGSIIGRNAMGWYRQAPGKERELVAAISTRGGRTYYADSVKGRFTISRDNAKNTVYLQMNSLKPEDTAVYYCAATYQYLKSGYYWGQGTQVTVSS”, the “polyreactivity (PSR sort gate)” value is “high polyreactivity”.

For “QVQLVESGGGLVQAGGSLRLSCPASGLIFVDNAMGWYRQAPGKERELVAAIDSGGSTNYADSVKGRFTISRDNAKNTVYLQMNRLQPEDTAVYYCAADGIYAPWYYQESVEYYFWGQGTQVTVSS”, the “polyreactivity (PSR sort gate)” value is on record as “low polyreactivity”.

“QVQLVESGGGLVQAGGSLRLSCAASGFTFYVNAMGWYRQAPGKEREFVAAISSSGASTRYADSVKGRFTISRDNAKNTVYLQMNSLKPEDTAVYYCAADAPAWILEAYGYWGQGTQVTVSS”: the “polyreactivity (PSR sort gate)” value is “low polyreactivity”.

With “QVQLVESGGGLVQAGGSLRLSCAASGSIFGRYAMGWYRQAPGKERELVAAISRTGVSTYYADSVKGRFTISRDNAKNTVYLQMKSLKTEDSAVYYCKAVRLSWQYTYYYWGQGTQVTVSS”, the “polyreactivity (PSR sort gate)” value is reported as “high polyreactivity”.

In the case of “QVQLVESGGGLVQAGGSLRLSCAASGSIFAKYAMGWYRQAPGKERELVAAITSGGSTNYADSVKGRFTISRDNAKITVYLQINSLKPEDTAVYYCNATGLYYDFYKLDYWGQGTQVTVSS”, the “polyreactivity (PSR sort gate)” value is reported as “low polyreactivity”.

In the case of “QVQLVESGGGLVQAGGSLRLSCAASGRTFYVYAMGWYRQAPGKERELVAAITRGGRTKYADSVKGRFTISRDNAKNTVYLQMNSLKPEDTAVYYCATVASPNRGGVSRYDYWGQGTQVTVSS”, the “polyreactivity (PSR sort gate)” value is reported as “high polyreactivity”.

As to “QVQLVESGGGLVQAGGSLRLSCAASGRTFVSTAMGWYRQAPGKERELVAGMSQRGGSTYYADSVKGRFTISRDNAKNTVYLHMNSMKPEDTAVYYCNAVSRAYFYGAYGPYTRFNYWGQGTQVTVSS”, the “polyreactivity (PSR sort gate)” value is listed as “high polyreactivity”.

For “QVQLVESGGGLVQAGGSLRLSCAASGRIFGYYVMGWYRQAPGTERELVAAITGGGGSTYYADSVKGRFTISRDNAKNTVYLQMNSLKPEDNAVYYCAADLEDTTYEYDYWGQGTQVTVSS”, the “polyreactivity (PSR sort gate)” value was “high polyreactivity”.

As to “QVQLVESGGGLVQAGGSLRLSCAASGGNLPYNVMGRYRQAPGKEWELVAAITSGVNTNYADSVKGRFTISRDNAKNTVYLQMNSLKPEDTAVYYCAARSGGPSDGSGYWGQGTQVTVSS”, the “polyreactivity (PSR sort gate)” value was “low polyreactivity”.

With “QVQRVESGGGLVQAGGSLRLSCAASGFTFRAYTMGWYRQAPGKDRELVAAITYSGGRRYYADSVKGRFTISRDNAKTTVYLQMNSLNPEDTAVYYCAKRGWALSEYYYWGQGTQVTVSS”, the “polyreactivity (PSR sort gate)” value is on record as “high polyreactivity”.

As to “QVQLVESGGGLVQAGGSLRLSCAASGSIFSFYAMGWYRQAPGKERELVADITWSGGRTYYADSVKGRFTISRDNAKNTVYLQMNSLKPEDTAVYYCNTELYLSRYKYVWSFDYWGQGTQVTVSS”, the “polyreactivity (PSR sort gate)” value is on record as “low polyreactivity”.

With “QVQLVESGGGLVQAGGSLRLSCAASGLTFLPNAMGWYRQAPGKERELVAAITNGGGTNYADSVKGRFTISRDNAKNTVYLQMNSLKPEDTAVYYCNADSTYFGGHDYWGQGTQVTVSS”, the “polyreactivity (PSR sort gate)” value was “low polyreactivity”.

In the case of “QVQLVESGGGLVQAGGSLRLSCAASGSTFALYAMGWYRQAPGKERELVAAISRSGSSTYYADSVKGRFTMSRDNAKNTVYLQMNSLKPEDTAVYYCATTISGLTSRLYYWGQGTQVTVSS”, the “polyreactivity (PSR sort gate)” value was “high polyreactivity”.

For “QVQLVESGGGLVQAGGSLRISCDPSGSTFGQYAMGSYRQAPGKERELVAAINWNGGSTYYADSVKGRFTISRDNAKNTVYLQMNSLKPEDTAVYYCAADPVYYDFDYWGQGTQVTVSS”, the “polyreactivity (PSR sort gate)” value is reported as “low polyreactivity”.

Regarding “QVQLVESGGGLVQAGGSLRLSCAASGSTFISNTMGWYRQAPGKERELVAGISSIGGITYYADSVKGRFTISRDNAKNTVYLQMNSLKPEDTAVYYCAKLDVISDDLDYWGQGTQVTVSS”, the “polyreactivity (PSR sort gate)” value is “low polyreactivity”.

As for “QVQLVESGGGLVQAGGSLRLSCAASGITFVNYAMGWYRQAPGKERELVAAISNGGSTYYADSVKGRFTISRDNAKNTVYLQMNSLKPEDTAVYYCAAKPVQKFRPRYGYWGQGTQVTVSS”, the “polyreactivity (PSR sort gate)” value is reported as “high polyreactivity”.

As to “QVQLVESGVGLVQAGGSLRLSCAASGFIFRYYTMGWYRPAPGKERELVAVITSGGTTYYADSVKGRFTISRDNAKNTVYLHMNSLIPEDTAVYYCAADYRPRLYGVGVDYWGQGSQVTVSS”, the “polyreactivity (PSR sort gate)” value is “low polyreactivity”.

As to “QVQLVESWGGLVQEGGSLRLSCAASGSTFGPYAMGWYRQAPGKERELVAAITESGDSTYYADSVKGRFTISRDNAKNSVYLQMNSLKPEDTAVYYCAATRGSSEYYYWGQGTQVTVSS”, the “polyreactivity (PSR sort gate)” value is “low polyreactivity”.

For the sequence “QVQLVESGGGLVQAGGSLRLSCAASGFIFTQNAMGWYRQAPGKERELVAVIRWNGGSTYYADSVKGRFTISRDNAKNTVYLQMNSLKPEDTEVYYCAAEFLWIVDYWGQGTQVTVSS”, the “polyreactivity (PSR sort gate)” value is given as “low polyreactivity”.

Regarding “QVQLQESGGGLVQEGGSLRLRCAASRNISGSSDLGWYHQAPGKEREFVASITSGGTTYYADSVKGRFTISRDNAKNTVYLQMNSLKPEDTAVYYCAVGDPADAEFGYWGQGTQVTVSS”, the “polyreactivity (PSR sort gate)” value is “low polyreactivity”.

On to “QVQLVESGGGLVQAGGSLRLSCAASGRIFHWYTMGWYRQAPGKEMELVAAISGSGGSTHYADSVKGRLTISRDNAKNTVYLQMNSLKPEDTAVYYCAAYIPVRYGTSDRGYWGQGTQVTVSS”, for which the “polyreactivity (PSR sort gate)” value was “low polyreactivity”.

Take “QVQLVESGGGLVQARGSLRLSCAASGRIFFRNAKGWYRQAPGKERELVAAITYSGGSTYYADSVKGRFTISRDNAKNTVYLQMNSLKPEDTAVYYCGAGYWFSYSRVTRYDYWGQGTQVTVSS”: the “polyreactivity (PSR sort gate)” value is “high polyreactivity”.

On to “QVQLVESGGGLVQAGGSLRLSCAASGRTYFDYTMGWYRQAPGKERELVAAINRSGVSTYYADSVKGRFTISRDNAKNTVYLQMNSLKPEDTAVYYCNADRGPPKLEYDPVIMDYWGQGTQVTVSS”, for which the “polyreactivity (PSR sort gate)” value is reported as “low polyreactivity”.

In the case of “QVQLVESGGGLVQAGGSLRLSCAASGSTFVLNAMGWYRQSPGKERQLVAGISYGTGSTYYADSVKGRITISRDNAKNTVYLQMNSLKPEDTAVYFCAADNWAVNAYYWYIYDYWGQGTQVTVSS”, the “polyreactivity (PSR sort gate)” value was “low polyreactivity”.
